Paper PMC8511506 (2021)

B1: CYLD CAP-Gly3 (aa 460-582) (domain or fragment)
chain: LAMPPGNSHGLEVGSLAEVKENPPFYGVIRWIGQPPGLNEVLAGLELEDECAGCTDGTFRGTRYFTCALKKALFVKLKSCRPDSRFASLQPVSNQIERCNSLAFGGYLSEVVEENTPPKMEKE
B2: CYLD CAP-Gly2 (aa 226-313) (domain or fragment)
chain: ELPPLEINSRVSLKVGETIESGTVIFCDVLPGKESLGYFVGVDMDNPIGNWDGRFDGVQLCSFACVESTILLHINDIIPALSESVTQE

Target: Ubiquitin (UniProt P0CG47 1-76)
Assay: ITC

Row | Binder | Kd [µM]
1 | B1 | 319
2 | B2 | 136
